Source: the supplement of paper PMC10567573

B1: APBB1IP (parent)
chain: PPEPLSQVSMWDQRWQDHQPLLPI

Variants of: B1
Assay: protein stability index of a GFP-peptide fusion (GPS, HEK-293T) (PSI 1-6); higher = more stable
Settings: c terminus: a fixed tail appended
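Also: lentivirally expressed fusions sorted by FACS into six bins by GFP to DsRed ratio, PSI derived from sequencing read proportions per bin multiplied by bin number.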

Variant	protein stability index
PPEPLSYVSMWDQRWQDHQPLLPI [Q7Y]	2.27
PPEPLSTVSMWDQRWQDHQPLLPI [Q7T]	3.3
PPEPLSFVSMWDQRWQDHQPLLPI [Q7F]	2.95
PPEPLSCVSMWDQRWQDHQPLLPI [Q7C]	3.13
PPEPLSLVSMWDQRWQDHQPLLPI [Q7L]	2.85
PPEPLSGVSMWDQRWQDHQPLLPI [Q7G]	3.25
PPEPLSDVSMWDQRWQDHQPLLPI [Q7D]	2.97
PPEPLSNVSMWDQRWQDHQPLLPI [Q7N]	3.14
PPEPLSKVSMWDQRWQDHQPLLPI [Q7K]	2.34
PPEPLSAVSMWDQRWQDHQPLLPI [Q7A]	3.47
PKEPLSQVSMWDQRWQDHQPLLPI [P2K]	2.83
PWEPLSQVSMWDQRWQDHQPLLPI [P2W]	2.07
PHEPLSQVSMWDQRWQDHQPLLPI [P2H]	2.65
PSEPLSQVSMWDQRWQDHQPLLPI [P2S]	2.83
PDEPLSQVSMWDQRWQDHQPLLPI [P2D]	2.95
PYEPLSQVSMWDQRWQDHQPLLPI [P2Y]	2.46
PQEPLSQVSMWDQRWQDHQPLLPI [P2Q]	2.52
PNEPLSQVSMWDQRWQDHQPLLPI [P2N]	3.09
PPEPLSQVSMWDQRWQDHQYLLPI [P20Y]	2.33
PPEPLSQVSMWDQRWQDHQNLLPI [P20N]	3.14
PPEPLSQVSMWDQRWQDHQTLLPI [P20T]	2.84
PPEPLSQVSMWDQRWQDHQWLLPI [P20W]	2.33
PPEPLSQVSMWDQRWQDHQHLLPI [P20H]	3.23
PPEPLSQVSMWDQRWQDHQPLLPV [I24V]	3.29

Variant	protein stability index
PPEPLSQVSMWDQRWQDHQPLLPF [I24F]	2.72
PPEPLSQVSMWDQRWQDHQPLLPD [I24D]	4.43
PPEPLSQVSMWDQRWQDHQPLLPM [I24M]	3.24
PPEPLSQVSMWDQRWQDHQPLLPY [I24Y]	3.54
PPEPLSQVSMWDQRWQDHQPLLPG [I24G]	4.44
PPEPLSQVSMWDQRWQDHQPLLPC [I24C]	2.69
PPEPLSQVSMWDQRWQDHQPLLPQ [I24Q]	3.93
PPEPLSQVSMWDQRWQDHQPLLCI [P23C]	3.48
PPEPLSQVSMWDQRWQDHQPLLMI [P23M]	2.08
PPEPLSQVSMWDQRWQDHQPLLNI [P23N]	3.23
PPEPLSQVSMWDQRWQDHQPLLYI [P23Y]	2.06
PPEPLSQVSMWDQRWQDHQPLLLI [P23L]	1.99
PPEPLSQVSMWDQRWQDHQPLLWI [P23W]	1.36
PPEPLSQVSMWDQRWQDHQPLLRI [P23R]	2.38
PPEPLSQVSMWDQRWQDHQPLLEI [P23E]	3.03
PPEPLSQVSMWDQRWQDHQPLLHI [P23H]	2.05
PPEPLSQVSMWDQRWQDHQPLLKI [P23K]	2.62
PPEPLSQVSMWDQRWQDHQPLLSI [P23S]	2.05
PPRPLSQVSMWDQRWQDHQPLLPI [E3R]	3.18
PPDPLSQVSMWDQRWQDHQPLLPI [E3D]	3.34
PPCPLSQVSMWDQRWQDHQPLLPI [E3C]	2.48
PPKPLSQVSMWDQRWQDHQPLLPI [E3K]	3.84
PPSPLSQVSMWDQRWQDHQPLLPI [E3S]	3.01
PPIPLSQVSMWDQRWQDHQPLLPI [E3I]	2.48

Variant	protein stability index
PPAPLSQVSMWDQRWQDHQPLLPI [E3A]	2.87
PPEPLSQVSMWCQRWQDHQPLLPI [D12C]	2.34
PPEPLSQVSMWEQRWQDHQPLLPI [D12E]	2.64
PPEPLSQVSMWWQRWQDHQPLLPI [D12W]	1.85
PPEPLSQVSMWHQRWQDHQPLLPI [D12H]	2.6
PPEPLSQVSMWRQRWQDHQPLLPI [D12R]	2.9
PPEPLSQVSMWDQRWQDHQPDLPI [L21D]	4.13
PPEPLSQVSMWDQRWQDHQPWLPI [L21W]	2.74
PPEPLSQVSMWDQRWQDHQPTLPI [L21T]	3.93
PPEPLSQVSMWDQRWQDHQPHLPI [L21H]	3.39
PPEPLSQVSMWDQRWQDHQPALPI [L21A]	3.88
PPEPLSQVSMWDQRWQDHQPPLPI [L21P]	3.54
PPEPLSQVSMWDQRWQDHQPMLPI [L21M]	3.4
PPEPLSQVSMWDQRWQDHQPFLPI [L21F]	2.24
PPEPLSQVSSWDQRWQDHQPLLPI [M10S]	3.35
PPEPLSQVSRWDQRWQDHQPLLPI [M10R]	3.37
PPEPLSQVSFWDQRWQDHQPLLPI [M10F]	2.94
PPEPLSQVSKWDQRWQDHQPLLPI [M10K]	2.92
PPEPLSQVSQWDQRWQDHQPLLPI [M10Q]	3.2
PPEPLSQVSHWDQRWQDHQPLLPI [M10H]	3.42
PPEPLSQVSPWDQRWQDHQPLLPI [M10P]	3.87
PPECLSQVSMWDQRWQDHQPLLPI [P4C]	2.51
PPESLSQVSMWDQRWQDHQPLLPI [P4S]	2.61
PPEALSQVSMWDQRWQDHQPLLPI [P4A]	3.05

Variant	protein stability index
PPEQLSQVSMWDQRWQDHQPLLPI [P4Q]	3.34
PPELLSQVSMWDQRWQDHQPLLPI [P4L]	2.54
PPEFLSQVSMWDQRWQDHQPLLPI [P4F]	2.44
PPEDLSQVSMWDQRWQDHQPLLPI [P4D]	3.56
PPEMLSQVSMWDQRWQDHQPLLPI [P4M]	2.79
PPEKLSQVSMWDQRWQDHQPLLPI [P4K]	2.55
PPEPLSQVSMWDQSWQDHQPLLPI [R14S]	3.84
PPEPLSQVSMWDQLWQDHQPLLPI [R14L]	3.01
PPEPLSQVSMWDQAWQDHQPLLPI [R14A]	2.75
PPEPLSQVSMWDQGWQDHQPLLPI [R14G]	3.98
PPEPLSQVSMWDQCWQDHQPLLPI [R14C]	2.79
PPEPLSQVSMWDQNWQDHQPLLPI [R14N]	3.86
PPEPLSQVSMWDQQWQDHQPLLPI [R14Q]	2.88
PPEPLSQVSMIDQRWQDHQPLLPI [W11I]	3.1
PPEPLSQVSMFDQRWQDHQPLLPI [W11F]	3.55
PPEPLSQVSMADQRWQDHQPLLPI [W11A]	4.11
PPEPLSQVSMHDQRWQDHQPLLPI [W11H]	3.83
PPEPLSQVSMMDQRWQDHQPLLPI [W11M]	3.57
PPEPLSQVSMPDQRWQDHQPLLPI [W11P]	3.08
PPEPLSQVSMRDQRWQDHQPLLPI [W11R]	3.4
PPEPLSQVSMWDQRWQAHQPLLPI [D17A]	2.5
PPEPLSQVSMWDQRWQSHQPLLPI [D17S]	2.53
PPEPLSQVSMWDQRWQMHQPLLPI [D17M]	3.24
PPEPLSQVSMWDQRWQTHQPLLPI [D17T]	2.57

Variant	protein stability index
PPEPLSQVSMWDQRWQVHQPLLPI [D17V]	2.54
PPEPLSQVSMWDIRWQDHQPLLPI [Q13I]	2.72
PPEPLSQVSMWDCRWQDHQPLLPI [Q13C]	2.56
PPEPLSQVSMWDTRWQDHQPLLPI [Q13T]	2.78
PPEPLSQVSMWDERWQDHQPLLPI [Q13E]	3.56
PPEPLSQVSMWDARWQDHQPLLPI [Q13A]	2.54
PPEPLSQVSMWDDRWQDHQPLLPI [Q13D]	3.51
PPEPLSQVSMWDVRWQDHQPLLPI [Q13V]	2.49
PPEPLSQVSMWDFRWQDHQPLLPI [Q13F]	2.4
PPEPLSQVSMWDQRWQDKQPLLPI [H18K]	3.1
PPEPLSQVSMWDQRWQDYQPLLPI [H18Y]	3.2
PPEPLSQVSMWDQRWQDGQPLLPI [H18G]	3.55
PPEPLSQNSMWDQRWQDHQPLLPI [V8N]	3.36
PPEPLSQISMWDQRWQDHQPLLPI [V8I]	3.25
PPEPLSQHSMWDQRWQDHQPLLPI [V8H]	3.21
PPEPLSQMSMWDQRWQDHQPLLPI [V8M]	3.22
PPEPLSQGSMWDQRWQDHQPLLPI [V8G]	3.38
PPEPLSQTSMWDQRWQDHQPLLPI [V8T]	2.9
PPEPLSQSSMWDQRWQDHQPLLPI [V8S]	3.52
PPEPLSQQSMWDQRWQDHQPLLPI [V8Q]	2.9
PPEPLSQASMWDQRWQDHQPLLPI [V8A]	3.02
PPEPLSQRSMWDQRWQDHQPLLPI [V8R]	2.83
PPEPLSQCSMWDQRWQDHQPLLPI [V8C]	2.22
PPEPLSQLSMWDQRWQDHQPLLPI [V8L]	2.77

Variant	protein stability index
PPEPLSQVVMWDQRWQDHQPLLPI [S9V]	3.35
PPEPLSQVRMWDQRWQDHQPLLPI [S9R]	3.27
PPEPLSQVAMWDQRWQDHQPLLPI [S9A]	3.4
PPEPLSQVLMWDQRWQDHQPLLPI [S9L]	2.84
PPEPLSQVMMWDQRWQDHQPLLPI [S9M]	3.27
PPEPLSQVGMWDQRWQDHQPLLPI [S9G]	3.35
PPEPLSQVHMWDQRWQDHQPLLPI [S9H]	3.22
PPEPLSQVNMWDQRWQDHQPLLPI [S9N]	3.25
PPEPLSQVDMWDQRWQDHQPLLPI [S9D]	3.55
RPEPLSQVSMWDQRWQDHQPLLPI [P1R]	2.54
QPEPLSQVSMWDQRWQDHQPLLPI [P1Q]	2.89
HPEPLSQVSMWDQRWQDHQPLLPI [P1H]	3.07
VPEPLSQVSMWDQRWQDHQPLLPI [P1V]	2.23
LPEPLSQVSMWDQRWQDHQPLLPI [P1L]	2.02
KPEPLSQVSMWDQRWQDHQPLLPI [P1K]	2.73
IPEPLSQVSMWDQRWQDHQPLLPI [P1I]	2.39
NPEPLSQVSMWDQRWQDHQPLLPI [P1N]	2.87
GPEPLSQVSMWDQRWQDHQPLLPI [P1G]	1.94
PPEPLSQVSMWDQRWQDHQPLQPI [L22Q]	3.68
PPEPLSQVSMWDQRWQDHQPLKPI [L22K]	4.04
PPEPLSQVSMWDQRWQDHQPLAPI [L22A]	3.4
PPEPLSQVSMWDQRWQDHQPLSPI [L22S]	3.55
PPEPLSQVSMWDQRWQDHQPLDPI [L22D]	3.89
PPEPLSQVSMWDQRWQDHQPLRPI [L22R]	3.54

Variant	protein stability index
PPEPLSQVSMWDQRWQDHQPLHPI [L22H]	3.29
PPEPLSQVSMWDQRWYDHQPLLPI [Q16Y]	2.98
PPEPLSQVSMWDQRWTDHQPLLPI [Q16T]	2.46
PPEPLSQVSMWDQRWLDHQPLLPI [Q16L]	2.46
PPEPLSQVSMWDQRWDDHQPLLPI [Q16D]	3.52
PPEPLSQVSMWDQRWCDHQPLLPI [Q16C]	2.6
PPEPLSQVSMWDQRWGDHQPLLPI [Q16G]	2.98
PPEPLSQVSMWDQRWKDHQPLLPI [Q16K]	3.06
PPEPLSQVSMWDQRWEDHQPLLPI [Q16E]	2.92
PPEPLSQVSMWDQRWFDHQPLLPI [Q16F]	2.83
PPEPLSQVSMWDQRYQDHQPLLPI [W15Y]	3.14
PPEPLSQVSMWDQRIQDHQPLLPI [W15I]	3.65
PPEPLSQVSMWDQRQQDHQPLLPI [W15Q]	4.36
PPEPLSQVSMWDQRRQDHQPLLPI [W15R]	3.41
PPEPLSQVSMWDQRTQDHQPLLPI [W15T]	4.39
PPEPLSQVSMWDQRNQDHQPLLPI [W15N]	3.7
PPEPLRQVSMWDQRWQDHQPLLPI [S6R]	3.36
PPEPLQQVSMWDQRWQDHQPLLPI [S6Q]	3.28
PPEPLEQVSMWDQRWQDHQPLLPI [S6E]	3.15
PPEPLKQVSMWDQRWQDHQPLLPI [S6K]	2.81
PPEPLTQVSMWDQRWQDHQPLLPI [S6T]	2.76
PPEPLDQVSMWDQRWQDHQPLLPI [S6D]	3.45
PPEPLNQVSMWDQRWQDHQPLLPI [S6N]	2.93
PPEPLYQVSMWDQRWQDHQPLLPI [S6Y]	2.09

Variant	protein stability index
PPEPLGQVSMWDQRWQDHQPLLPI [S6G]	2.9
PPEPLIQVSMWDQRWQDHQPLLPI [S6I]	2.71
PPEPLHQVSMWDQRWQDHQPLLPI [S6H]	2.71
PPEPHSQVSMWDQRWQDHQPLLPI [L5H]	3.54
PPEPGSQVSMWDQRWQDHQPLLPI [L5G]	3.05
PPEPMSQVSMWDQRWQDHQPLLPI [L5M]	2.88
PPEPYSQVSMWDQRWQDHQPLLPI [L5Y]	2.71
PPEPWSQVSMWDQRWQDHQPLLPI [L5W]	2.2
PPEPTSQVSMWDQRWQDHQPLLPI [L5T]	3.19
PPEPCSQVSMWDQRWQDHQPLLPI [L5C]	3.75
PPEPFSQVSMWDQRWQDHQPLLPI [L5F]	3
PPEPKSQVSMWDQRWQDHQPLLPI [L5K]	2.71
PPEPLSQVSMWDQRWQDHFPLLPI [Q19F]	2.89
PPEPLSQVSMWDQRWQDHWPLLPI [Q19W]	2.21
PPEPLSQVSMWDQRWQDHLPLLPI [Q19L]	2.83
PPEPLSQVSMWDQRWQDHMPLLPI [Q19M]	2.72
PPEPLSQVSMWDQRWQDHCPLLPI [Q19C]	2.61
PPEPLSQVSMWDQRWQDHEPLLPI [Q19E]	3.48
PPEPLSQVSMWDQRWQDHIPLLPI [Q19I]	2.47
PPEPLSQVSMWDQRWQDHYPLLPI [Q19Y]	2.44
